Patent US20220251194A1 (Merck Sharp & Dohme, published 2022)
Substitutions are numbered along the chain they refer to. Names and notes keep the numbering of the source. Blank lines part the entries; values can stand above or below the binder they belong to.

Tests used:
[1] = target: T1, human PD1 on PathHunter U2OS dimer cells (human, UniProt Q15116 25-288); experiment: PathHunter dimerization assay, U2OS cells co-expressing human PD1 and LAG3; the signal needs both targets to be bound on the same cell
T1 construct: whole, on cells; On Human PD1/LAG3 dimer cell Clone #9 (Lot 56AUA) and Human PD1/TIGIT dimer cell Clone #5 (Lot 14BAU); also called hPD1; not shown: beta-galactosidase fragment (ProLink or Enzyme Acceptor)

[2] = target: T2, Human PD1 (50AFR), [VEGF leader]-Sino-Bio-PD-1_H-[His9G] (human, UniProt Q15116 25-167); experiment: SPR (Biacore T200 or 4000), antibody captured via anti-human Fc, antigen as analyte
T2 construct: Expressed with a VEGF leader; also called PD-1-His (50AFR)
Description: (§1) Binding affinities were measured using a Biacore T200 or Biacore 4000 biosensor (GE Healthcare, Chicago, Ill.). The following running buffer, 10 mM HEPES, 150 mM NaCl, 0.05% v/v Surfactant P20, 3 mM EDTA (GE Healthcare, BR100669, Chicago, Ill.), was used for immobilization, sample dilution and data collection. All experiments were performed at 25° C. Antigen binding to antibodies captured via an anti-human Fc antibody was measured using a Series S Sensor Chip CM5 (GE Healthcare, 29149603, Chicago, Ill.). An anti-human Fc antibody was immobilized on all surfaces of the chip according to the instructions in the Human Antibody Capture Kit (GE Healthcare, BR100839, Chicago, Ill.) and the Amine Coupling Kit (GE Healthcare, BR100633, Chicago, Ill.). […] After the antigen injections the dissociation of the interaction was monitored for 15 minutes. Between binding cycles the antibody and antigen were removed from the chip with a 30 second injection of 3 M MgCl₂.
(§2) The data were processed and fit using Biacore T200 Evaluation Software version 2.0 or Biacore 4000 Evaluation Software version 1.1 (GE Healthcare, Chicago, Ill.). The data were “double referenced” by subtracting the response from a negative control flowcell and subtracting the response from a buffer injection or the average response from two buffer injections. The data were then fit with the ‘1:1 Binding’ model to determine the association rate constant, kₐ (M⁻¹s⁻¹, where “M” equals molar and “s” equals seconds) and the dissociation rate constant, kd (s⁻¹). These rate constants were used to calculate the equilibrium dissociation constant, KD (M)=[…].

[3] = target: T3, human TIGIT (94AGV) (human, UniProt Q495A1 22-141, limits assumed); experiment: as above
T3 construct: Lot 94AGV is not described further
T3 sequence (looked up): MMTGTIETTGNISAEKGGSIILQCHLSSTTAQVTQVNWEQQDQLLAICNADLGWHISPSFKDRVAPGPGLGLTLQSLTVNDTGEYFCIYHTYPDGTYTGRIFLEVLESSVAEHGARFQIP
Description: as §1, §2

[4] = target: T4, human LAG-3 (60AXE) (human, UniProt P18627 23-450, limits assumed); experiment: as above
T4 construct: Lot 60AXE is not described further
T4 sequence (looked up): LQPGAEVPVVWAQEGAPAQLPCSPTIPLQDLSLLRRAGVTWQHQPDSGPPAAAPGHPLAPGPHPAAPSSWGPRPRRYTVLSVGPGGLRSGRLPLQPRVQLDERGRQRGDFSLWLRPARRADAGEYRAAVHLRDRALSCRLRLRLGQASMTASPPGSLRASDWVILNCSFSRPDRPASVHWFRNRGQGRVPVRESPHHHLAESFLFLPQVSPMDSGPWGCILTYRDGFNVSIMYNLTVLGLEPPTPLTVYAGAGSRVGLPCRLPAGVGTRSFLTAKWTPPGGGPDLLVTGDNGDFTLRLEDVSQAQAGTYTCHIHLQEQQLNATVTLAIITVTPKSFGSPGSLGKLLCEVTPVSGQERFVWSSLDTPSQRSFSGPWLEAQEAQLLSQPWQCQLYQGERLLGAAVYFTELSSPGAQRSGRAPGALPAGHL
Description: as §1, §2

[5] = target: T5, recombinant human or cyno PD-1 (immobilized onto CM5 chip, Example 1) (human or cyno ( which was …, UniProt Q15116 25-167, limits assumed)); experiment: SPR (Biacore T200), PD-1 immobilized on CM5 chip, Fab as analyte; lower end of the printed range 2.80-2.90
T5 construct: also called antigen
Description: (§3) Immobilization of recombinant human or cyno PD-1 onto CM5 chip: A CM5 sensor chip was activated in FC2 by 7-min. injection (10 μl/min.) of freshly prepared 1:1 50 mM NHS: 200 mM EDC. PD-1 at a concentration of 0.2 μg/ml in 10 mM sodium acetate buffer pH 5.0 was injected onto the activated chip at 5 μl/min. (HBS-EP running buffer: 10 mM HEPES, 150 mM NaCl, 3.4 mM EDTA, 0.005% surfactant P20, pH 7.4) for 120 seconds. The remaining active coupling sites were blocked with 7 min. injection of 1M ethanolamine at 10 μl/min.
(§4) Binding kinetics measurement: Various concentrations of the Fabs were injected with a flow rate of 30 μl/min for 180 seconds(s) during the association phase. The dissociation of bound antibody was monitored by flowing HBS-EP buffer over the chip surface for 600 seconds. At the end of each cycle, the sensor surfaces were regenerated by injecting regeneration buffer (10 mM glycine buffer with pH 1.7) for 180 seconds. After sensograms were corrected for signals from a reference flow, kinetics were calculated with BIACORE T 200 evaluation software ver.1.0 (Biacore, GE, USA).

[6] = target: T5, recombinant human or cyno PD-1 …; experiment: SPR (Biacore), Fab against PD-1
Description: as §3, §4

T5 sequence (Q15116 25-167 limits assumed): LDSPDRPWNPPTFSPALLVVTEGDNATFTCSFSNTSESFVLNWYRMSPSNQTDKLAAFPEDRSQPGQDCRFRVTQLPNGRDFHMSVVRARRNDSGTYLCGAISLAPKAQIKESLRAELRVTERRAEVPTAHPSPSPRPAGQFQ
T2 sequence (Q15116 25-167): as the sequence (Q15116 25-167 limits assumed) above
T1 sequence (Q15116 25-288): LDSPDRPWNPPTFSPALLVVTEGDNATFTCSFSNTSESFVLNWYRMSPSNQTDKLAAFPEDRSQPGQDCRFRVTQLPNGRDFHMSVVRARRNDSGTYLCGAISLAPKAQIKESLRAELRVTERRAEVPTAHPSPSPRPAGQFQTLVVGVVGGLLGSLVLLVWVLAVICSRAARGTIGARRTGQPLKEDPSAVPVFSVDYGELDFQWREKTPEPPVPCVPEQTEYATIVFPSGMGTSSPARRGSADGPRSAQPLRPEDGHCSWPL

- binding result [1]: no binding
B1: Humanized x [LAG3_H][TIGIT_H] BsAb (22D2 VH6 C-term 31C6 scFv VL-VH / VL3 Y31W) IgG1 L234A L235A D265S / Kappa (Lot 80BCK) (bispecific antibody)
heavy: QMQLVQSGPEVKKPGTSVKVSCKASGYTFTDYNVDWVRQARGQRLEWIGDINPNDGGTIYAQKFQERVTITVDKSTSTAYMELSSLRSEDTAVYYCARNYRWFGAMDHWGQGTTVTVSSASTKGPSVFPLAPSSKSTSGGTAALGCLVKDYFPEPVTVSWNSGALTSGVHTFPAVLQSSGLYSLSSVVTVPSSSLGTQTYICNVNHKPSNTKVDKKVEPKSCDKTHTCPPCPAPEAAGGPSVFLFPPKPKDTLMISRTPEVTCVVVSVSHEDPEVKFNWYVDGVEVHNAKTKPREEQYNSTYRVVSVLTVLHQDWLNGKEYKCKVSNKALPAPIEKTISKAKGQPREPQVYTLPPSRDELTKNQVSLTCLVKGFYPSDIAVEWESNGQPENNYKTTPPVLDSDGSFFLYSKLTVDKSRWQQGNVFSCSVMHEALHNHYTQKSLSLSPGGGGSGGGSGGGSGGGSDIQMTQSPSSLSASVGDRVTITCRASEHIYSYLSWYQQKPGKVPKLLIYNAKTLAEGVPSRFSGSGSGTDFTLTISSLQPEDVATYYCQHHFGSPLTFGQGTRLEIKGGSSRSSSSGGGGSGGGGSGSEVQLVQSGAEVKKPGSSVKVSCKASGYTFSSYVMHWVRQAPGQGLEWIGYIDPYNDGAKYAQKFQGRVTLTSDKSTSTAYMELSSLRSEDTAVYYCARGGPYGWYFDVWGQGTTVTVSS
light: DIVMTQTPLSLSVTPGQPASISCKASQSLDWEGDSDMNWYLQKPGQPPQLLIYGASNLESGVPDRFSGSGSGTDFTLKISRVEAEDVGVYYCQQSTEDPRTFGGGTKVEIKRTVAAPSVFIFPPSDEQLKSGTASVVCLLNNFYPREAKVQWKVDNALQSGNSQESVTEQDSKDSTYSLSSTLTLSKADYEKHKVYACEVTHQGLSSPVTKSFNRGEC
notes: Anti-LAG3 IgG1 with an anti-TIGIT scFv at the C-terminus of the heavy chain; also called 80BCK (control); Hz x Hu [LAG3]; [TIGIT]; BsAb (Y31W)

- Kd [2]: 0.289 nM
- Kd [3]: 1.09 nM
- Kd [4]: 0.023 nM
B2: anti-PD-1/LAG-3/TIGIT trispecific antibody (TsAbY31W) (Lot 30BCM) (other)
heavy 1: EVQLVQSGAEVKKPGASVKVSCKASGYTFTSYYLYWVRQAPGQGLEWIGGVNPSNAGTNFNEKFKSRVTLTVDTSISTAYMELSRLRSDDTAVYYCTRRLSHYDGGFDYWGQGTTVTVSSASTKGPSVFPLAPSSKSTSGGTAALGCEVTDYFPEPVTVSWNSGALTSGVHTFPAVLESSGLYSLLSVVTVPSSSLGTQTYICNVNHKPSNTKVDKKVEPKSCDKTHTCPPCPAPEAAGGPSVFLFPPKPKDTLMISRTPEVTCVVVSVSHEDPEVKFNWYVDGVEVHNAKTKPREEQYNSTYRVVSVLTVLHQDWLNGKEYKCKVSNKALPAPIEKTISKAKGQPREPQVYVYPPSRDELTKNQVSLTCLVKGFYPSDIAVEWESNGQPENNYKTTPPVLDSDGSFALVSKLTVDKSRWQQGNVFSCSVMHEALHNHYTQKSLSLSPGGGGSGGGSGGGSGGGSDIQMTQSPSSLSASVGDRVTITCRASEHIYSYLSWYQQKPGKVPKLLIYNAKTLAEGVPSRFSGSGSGTDFTLTISSLQPEDVATYYCQHHFGSPLTFGQGTRLEIKGGSSRSSSSGGGGSGGGGSGSEVQLVQSGAEVKKPGSSVKVSCKASGYTFSSYVMHWVRQAPGQGLEWIGYIDPYNDGAKYAQKFQGRVTLTSDKSTSTAYMELSSLRSEDTAVYYCARGGPYGWYFDVWGQGTTVTVSS
light 1: DIVMTQTPLSLSVTPGQPASISCRASKSVSTSGFSYLHWYLQKPGQPPQLLIFLSKYRSSGVPDRFSGSGSGTDFTLKISRVEAEDVGVYYCSQAYHLPLTFGQGTKLEIKRTVAAPSVFIFPPSDERLKSGTASVVCLLNNFYPREAKVQWKVDNALQSGNSQESVTEQDSKDSTYSLSSRLTLSKADYEKHKVYACEVTHQGLSSPVTKSFNRGEC
heavy 2: QMQLVQSGPEVKKPGTSVKVSCKASGYTFTDYNVDWVRQARGQRLEWIGDINPNDGGTIYAQKFQERVTITVDKSTSTAYMELSSLRSEDTAVYYCARNYRWFGAMDHWGQGTTVTVSSASTKGPSVFPLAPSSKSTSGGTAALGCLVKDYFPEPVTVSWNSGALTSGVHTFPAVLQSSGLYKLSSVVTVPSSSLGTQTYICNVNHKPSNTKVDKKVEPKSCDKTHTCPPCPAPEAAGGPSVFLFPPKPKDTLMISRTPEVTCVVVSVSHEDPEVKFNWYVDGVEVHNAKTKPREEQYNSTYRVVSVLTVLHQDWLNGKEYKCKVSNKALPAPIEKTISKAKGQPREPQVYVLPPSRDELTKNQVSLLCLVKGFYPSDIAVEWESNGQPENNYLTWPPVLDSDGSFFLYSKLTVDKSRWQQGNVFSCSVMHEALHNHYTQKSLSLSPGGGGSGGGSGGGSGGGSDIQMTQSPSSLSASVGDRVTITCRASEHIYSYLSWYQQKPGKVPKLLIYNAKTLAEGVPSRFSGSGSGTDFTLTISSLQPEDVATYYCQHHFGSPLTFGQGTRLEIKGGSSRSSSSGGGGSGGGGSGSEVQLVQSGAEVKKPGSSVKVSCKASGYTFSSYVMHWVRQAPGQGLEWIGYIDPYNDGAKYAQKFQGRVTLTSDKSTSTAYMELSSLRSEDTAVYYCARGGPYGWYFDVWGQGTTVTVSS
light 2: B1 light with Q128E, S135T, T182Y, T184E
notes: Trispecific heterodimeric IgG1 / kappa; also called Y31W mutant; Hz x Hu [PD-1]; [TIGIT]; [LAG3]; TsAb (Y31W)

- Kd [5]: 0.28 to 0.29 nM
B3: Fab001 (humanized 08A Fab with S61N glycosylation site correction) (Fab, V domains shown)
VH: EVQLVQSGAEVKKPGASVKVSCKASGYTFTSYYLYWVRQAPGQGLEWIGGVNPSNGGTNFNEKFKSRVTLTVDTSISTAYMELSRLRSDDTAVYYCTRRDSNYDGGFDYWGQGTTVTVSS
VL: DIVMTQTPLSLSVTPGQPASISCRASKSVSTSGFSYLHWYLQKPGQPPQLLIFLASNLESGVPDRFSGSGSGTDFTLKISRVEAEDVGVYYCQHSWELPLTFGQGTKLEIKR
notes: Fab with IgG4 CH1 and kappa light chain

- fold improvement in KD over 08A [6]: 2 fold
B4: Fab 004 (Fab, V domains shown)
VH: B3 VH with D100L, N102H
VL: B3 VL
notes: also called 3G9; H3G9
